Source: patent publication US20060134709A1
Like-named read-outs stand apart in the source and are kept apart here. Blank lines part the entries; values can stand above or below the substance they belong to.

Key:
[1] = biological target: FcγRIIB-Fc fusion protein (human) (UniProt P31994); experiment: BIAcore
[2] = biological target: soluble monomeric FcγRIIIA-linker-AVITAG (human) (UniProt P08637); experiment: ELISA
[3] = biological target: soluble monomeric FcγRIIIA-linker-AVITAG (human) (UniProt P08637); experiment: BIAcore
FcγRIIIA 158V (human) = FcγRIIIA 158V (human) (UniProt P08637); experiment: BIAcore
soluble FcγRIIB (human) = soluble FcγRIIB (human) (UniProt P31994); experiment: ELISA
[4] = biological target: FcγRIIB-Fc fusion protein (human) (UniProt P31994); experiment: ELISA of FcγRIIB-Fc binding; OD listed beside the sensorgrams
[5] = biological target: FcγRIIB-Fc fusion protein (human) (UniProt P31994); experiment: BIAcore; remark: listed apart in the source
[6] = biological target: FcγRIIB-Fc fusion protein (human) (UniProt P31994); experiment: ELISA
[7] = biological target: soluble monomeric FcγRIIIA-linker-AVITAG (human) (UniProt P08637); experiment: BIAcore: ch4-4-20 captured on BSA-FITC, FcγRIIIA at 200 nM and 800 nM, separate fits, average of the two concentrations

Koff WT/Mut [1]: 0.61
Substance: ch4-4-20 A330V (antibody)

Koff WT/Mut [1]: 0.62
Substance: ch4-4-20 A330V, G427M (antibody)

Koff WT/Mut [1]: 0.54
Substance: ch4-4-20 E233G (antibody)

fold increase vs wt [2]: 0.4 x | fold vs wt [2]: 1.4 X | Kd [3]: 195 nM | koff [3]: 0.198 s⁻¹ | Kd [1]: 86 nM | Koff WT/Mut [1]: 1.3 | koff [1]: 0.074 s⁻¹ | Koff WT/Mut (FcγRIIIA 158V (human)): 0.86
Substance: ch4-4-20 E293V, Q295E, A327T (antibody)

Kd [3]: 99.7 nM | koff [3]: 0.105 s⁻¹ | Kd [1]: 120 nM | koff [1]: 0.113 s⁻¹
Substance: ch4-4-20 F243I, V379L (antibody)

Kd [1]: 93.4 nM | koff [1]: 0.101 s⁻¹
Substance: ch4-4-20 F243I, V379L, G420V (antibody)

fold increase vs wt [2]: 1.5 x | fold vs wt [2]: 1.5 X | fold increase vs wt (soluble FcγRIIB (human)): 14 x | fold vs wt (soluble FcγRIIB (human)): 14 X | Kd [3]: 72 nM | koff [3]: 0.117 s⁻¹ | Kd [1]: 46 nM | koff [1]: 0.06 s⁻¹
Substance: ch4-4-20 G316D, A378V, D399E (antibody)

fold increase vs wt [2]: 2.2 x | fold vs wt [2]: 2.2 X | fold increase vs wt (soluble FcγRIIB (human)): 4.5 x | fold vs wt (soluble FcγRIIB (human)): 4.5 X | Kd [3]: 178 nM | koff [3]: 0.159 s⁻¹ | Kd [1]: 46.6 nM | Koff WT/Mut [1]: 1.04 | koff [1]: 0.036 s⁻¹ | Koff WT/Mut (FcγRIIIA 158V (human)): 0.92
Substance: ch4-4-20 H268N, P396L (antibody)

Koff WT/Mut [1]: 1.03 | Kd ([1]; Fc variant MGFc 37): 100 nM | koff ([1]; Fc variant MGFc 37): 0.091 s⁻¹ | Kd ([1]; Fc variant MGFc 40): 110 nM | koff ([1]; Fc variant MGFc 40): 0.09 s⁻¹ | Koff WT/Mut (FcγRIIIA 158V (human)): 0.977
Substance: ch4-4-20 K248M (antibody)

fold increase vs wt [2]: 2 x | fold increase vs wt (soluble FcγRIIB (human)): 4.2 x | Koff WT/Mut [1]: 0.85 | Koff WT/Mut (FcγRIIIA 158V (human)): 1.29
Substance: ch4-4-20 K261N, K210M, P396L (antibody)

ELISA, OD [4]: 0.13 OD | ELISA, OD [2]: 1.1 OD | fold increase vs wt [2]: 3 x | fold vs wt [2]: 3 X | Kd [3]: 75.4 nM | koff [3]: 0.1 s⁻¹ | kon [3]: 1.37e+06 M⁻¹ s⁻¹ | Kd [1]: 95.6 nM | koff [1]: 0.089 s⁻¹
Substance: ch4-4-20 K288M, K334E (antibody)

Kd [5]: 41.3 nM | ELISA, OD [2]: 1 OD | ELISA, OD [6]: 1.2 OD | Kd [1]: 33.4 nM
Substance: ch4-4-20 K288N, A330S, P396L (antibody)

fold increase vs wt [2]: 4.1 x | fold increase vs wt (soluble FcγRIIB (human)): 2.3 x | Koff WT/Mut [1]: 0.89 | Koff WT/Mut (FcγRIIIA 158V (human)): 1.27
Substance: ch4-4-20 K288R, T307A, K344E, P396L (antibody)

Kd [5]: 51.7 nM | koff [5]: 0.043 s⁻¹ | ELISA, OD [2]: 1 OD | fold increase vs wt [2]: 2 x | ELISA, OD [6]: 1.25 OD | fold increase vs wt (soluble FcγRIIB (human)): 3.5 x | Kd [3]: 92 nM | koff [3]: 0.112 s⁻¹ | kon [3]: 1.23e+06 M⁻¹ s⁻¹
Substance: ch4-4-20 K326E (antibody)

fold increase vs wt [2]: 1.5 x | fold vs wt [2]: 1.5 X | Kd [3]: 55.2 nM | koff [3]: 0.128 s⁻¹ | Kd [1]: 72 nM | koff [1]: 0.11 s⁻¹
Substance: ch4-4-20 K334E, T359N, T366S (antibody)

fold increase vs wt [2]: 1 x | fold increase vs wt (soluble FcγRIIB (human)): 3.5 x
Substance: ch4-4-20 K370N, S440N (antibody)

fold increase vs wt [2]: 4.5 x | fold vs wt [2]: 4.5 X | fold increase vs wt (soluble FcγRIIB (human)): 2.5 x | fold vs wt (soluble FcγRIIB (human)): 2.5 X | Kd [3]: 84 nM | koff [3]: 0.104 s⁻¹ | Kd [1]: 50 nM | Koff WT/Mut [1]: 2.3 | koff [1]: 0.041 s⁻¹ | Koff WT/Mut (FcγRIIIA 158V (human)): 1.64
Substance: ch4-4-20 K392T, P396L (antibody)

fold increase vs wt [2]: 2.5 x | fold increase vs wt (soluble FcγRIIB (human)): 4.1 x
Substance: ch4-4-20 L242F, P396L (antibody)

fold increase vs wt [2]: 1.9 x | fold increase vs wt (soluble FcγRIIB (human)): 4.2 x
Substance: ch4-4-20 L358P, P396L (antibody)

fold increase vs wt [2]: 1.7 x | fold increase vs wt (soluble FcγRIIB (human)): 4.5 x
Substance: ch4-4-20 L410H, P396L (antibody)

Kd [5]: 66.5 nM | koff [5]: 0.06 s⁻¹ | ELISA, OD [2]: 0.6 OD | ELISA, OD [6]: 0.35 OD | Kd [3]: 264 nM | koff [3]: 0.175 s⁻¹ | kon [3]: 667000 M⁻¹ s⁻¹ | koff [7]: 0.173 s⁻¹
Substance: ch4-4-20 Mut 6 (S219V) (antibody)

Koff WT/Mut [1]: 0.64
Substance: ch4-4-20 N276Y (antibody)

fold increase vs wt [2]: 1 x | fold vs wt [2]: 1 X | fold increase vs wt (soluble FcγRIIB (human)): 9 x | fold vs wt (soluble FcγRIIB (human)): 9 X
Substance: ch4-4-20 N315I, V379M, T394M (antibody)

fold increase vs wt [2]: 2.2 x | fold increase vs wt (soluble FcγRIIB (human)): 5.2 x
Substance: ch4-4-20 N384K, P396L (antibody)

fold increase vs wt [2]: 1.5 x | fold increase vs wt (soluble FcγRIIB (human)): 4.8 x
Substance: ch4-4-20 P217A, T359A, P396L (antibody)

fold increase vs wt [2]: 2 x | fold increase vs wt (soluble FcγRIIB (human)): 4.5 x
Substance: ch4-4-20 P217S, A378V, S408R (antibody)

fold increase vs wt [2]: 1.6 x | fold increase vs wt (soluble FcγRIIB (human)): 4.5 x | Koff WT/Mut [1]: 0.95 | Koff WT/Mut (FcγRIIIA 158V (human)): 1.17
Substance: ch4-4-20 P217S, P396L (antibody)

fold increase vs wt [2]: 2 x | fold increase vs wt (soluble FcγRIIB (human)): 7 x
Substance: ch4-4-20 P217S, V305I, I309L, N390H, P396L (antibody)

fold increase vs wt [2]: 1 x | fold increase vs wt (soluble FcγRIIB (human)): 0.5 x
Substance: ch4-4-20 P227S, K290E (antibody)

fold increase vs wt [2]: 1.5 x | fold increase vs wt (soluble FcγRIIB (human)): 4 x
Substance: ch4-4-20 P227S, P396L (antibody)

fold increase vs wt [2]: 1.75 x | fold increase vs wt (soluble FcγRIIB (human)): 1.5 x
Substance: ch4-4-20 P244H, L358M, V379M, N384K, V397M (antibody)

fold increase vs wt [2]: 2.5 x | fold increase vs wt (soluble FcγRIIB (human)): 4 x
Substance: ch4-4-20 P244H, P396L (antibody)

fold increase vs wt [2]: 0.5 x | fold increase vs wt (soluble FcγRIIB (human)): 4 x
Substance: ch4-4-20 P247L (antibody)

fold increase vs wt [2]: 0.75 x | fold decrease vs wt (soluble FcγRIIB (human)): 0.25 x
Substance: ch4-4-20 P247L, A330T, S440G (antibody)

fold increase vs wt [2]: 1.5 x | fold increase vs wt (soluble FcγRIIB (human)): 9 x
Substance: ch4-4-20 P247L, E389G (antibody)
